# Measurements from the supplement of paper PMC5998384.
# Key:
# HeLa Kyoto [1] = assay: solubility in G1/S (NP-40 vs SDS abundance) (log2 ratio); higher = more soluble; conditions: cell cycle stage: G1/S
# HeLa Kyoto [2] = assay: solubility change mitosis vs G1/S (difference of NP-40 vs SDS log2 ratios) (log2 ratio difference); higher = more soluble in mitosis
# 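For solubility change mitosis vs G1/S (difference of NP-40 vs SDS log2 ratios) in this document: synchronized HeLa Kyoto cells (double thymidine block for G1/S, nocodazole release for mitosis), protein amounts in NP-40 versus SDS lysates quantified by mass spectrometry, three biological replicates.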
# 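For solubility in G1/S (NP-40 vs SDS abundance) in this document: HeLa Kyoto cells arrested at G1/S by double thymidine block, proteins quantified by TMT10plex mass spectrometry in mild NP-40 versus SDS extracts, three biological replicates.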
# Chain of POMGNT1 (chain, as listed by the source): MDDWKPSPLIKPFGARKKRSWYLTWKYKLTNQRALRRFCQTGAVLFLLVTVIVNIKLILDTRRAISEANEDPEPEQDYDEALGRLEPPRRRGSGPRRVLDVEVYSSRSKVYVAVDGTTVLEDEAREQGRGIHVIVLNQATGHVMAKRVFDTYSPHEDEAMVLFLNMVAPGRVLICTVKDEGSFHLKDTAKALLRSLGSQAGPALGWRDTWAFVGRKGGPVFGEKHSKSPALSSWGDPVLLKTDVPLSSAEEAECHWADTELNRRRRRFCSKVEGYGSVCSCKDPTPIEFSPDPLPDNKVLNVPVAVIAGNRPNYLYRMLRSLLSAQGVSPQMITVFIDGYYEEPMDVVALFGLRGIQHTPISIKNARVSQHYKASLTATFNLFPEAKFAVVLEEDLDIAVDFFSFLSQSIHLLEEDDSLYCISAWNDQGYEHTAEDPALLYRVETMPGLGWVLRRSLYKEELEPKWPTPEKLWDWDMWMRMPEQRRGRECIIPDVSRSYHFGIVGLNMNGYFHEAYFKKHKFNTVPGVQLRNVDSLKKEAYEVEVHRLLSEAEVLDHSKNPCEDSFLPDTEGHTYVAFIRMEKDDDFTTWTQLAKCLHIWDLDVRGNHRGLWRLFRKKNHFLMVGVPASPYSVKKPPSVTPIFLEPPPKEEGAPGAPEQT
Substance,solubility in G1/S (log2) (HeLa Kyoto [1]),solubility change mitosis (log2) (HeLa Kyoto [2])
MGVSKLDILYRRLLLTKLFIRGWGRPEDLKRLFEFRKMIGNRERCQNLVSSDYPVHIDKIEEQSDCKILDGHFVSPMAHYVPDIMPIESVIARFQFIVPKEWNSKYRPVCIHLAGTGDHHYWRRRTLMARPMIKEARMASLLLENPYYGCRKPKDQVRSSLKNVSDLFVMGGALVLESAALLHWLEREGYGPLGMTGISMGGHMASLAVSNWPKPMPLIPCLSWSTASGVFTTTDSFKMGQEFVKHFTSSADKLTNLNLVSRTLNLDISNQVVSQKPADCHNSSKTSVSATSEGLLLQDTSKMKRFNQTLSTNKSGYTSRNPQSYHLLSKEQSRNSLRKESLIFMKGVMDECTHVANFSVPVDPSLIIVVQAKEDAYIPRTGVRSLQEIWPGCEIRYLEGGHISAYLFKQGLFR [ABHD18],-0.33,-0.181
MDEDGGGEGGGVPEDLSLEEREELLDIRRRKKELIDDIERLKYEIAEVMTEIDNLTSVEESKTTQRNKQIAMGRKKFNMDPKKGIQFLIENDLLQSSPEDVAQFLYKGEGLNKTVIGDYLGERDEFNIKVLQAFVELHEFADLNLVQALRQFLWSFRLPGEAQKIDRMMEAFASRYCLCNPGVFQSTDTCYVLSFAIIMLNTSLHNHNVRDKPTAERFIAMNRGINEGGDLPEELLRNLYESIKNEPFKIPEDDGNDLTHTFFNPDREGWLLKLGGGRVKTWKRRWFILTDNCLYYFEYTTDKEPRGIIPLENLSIREVEDPRKPNCFELYNPSHKGQVIKACKTEADGRVVEGNHVVYRISAPSPEEKEEWMKSIKASISRDPFYDMLATRKRRIANKK [CYTH3],0.26,-0.11
MGDDRPFVCNAPGCGQRFTNEDHLAVHKHKHEMTLKFGPARTDSVIIADQTPTPTRFLKNCEEVGLFNELASSFEHEFKKAADEDEKKAAAGPLDMSLPSTPDIKIKEEEPVEVDSSPPDSPASSPCSPPLKEKEVTPKPVLISTPTPTIVRPGSLPLHLGYDPLHPTLPSPTSVITQAPPSNRQMGSPTGSLPLVMHLANGQTMPVLPGPPVQMPSVISLARPVSMVPNIPGIPGPPVNSSGSISPSGHPIPSEAKMRLKATLTHQVSSINGGCGMVVGTASTMVTARPEQSQILIQHPDAPSPAQPQVSPAQPTPSTGGRRRRTVDEDPDERRQRFLERNRAAASRCRQKRKLWVSSLEKKAEELTSQNIQLSNEVTLLRNEVAQLKQLLLAHKDCPVTALQKKTQGYLESPKESSEPTGSPAPVIQHSSATAPSNGLSVRSAAEAVATSVLTQMASQRTELSMPIQSHVIMTPQSQSAGR [ATF7],0.504,0.0933
MNGPADGEVDYKKKYRNLKRKLKFLIYEHECFQEELRKAQRKLLKVSRDKSFLLDRLLQYENVDEDSSDSDATASSDNSETEGTPKLSDTPAPKRKRSPPLGGAPSPSSLSLPPSTGFPLQASGVPSPYLSSLASSRYPPFPSDYLALQLPEPSPLRPKREKRPRLPRKLKMAVGPPDCPVGGPLTFPGRGSGAGVGTTLTPLPPPKMPPPTILSTVPRQMFSDAGSGDDALDGDDDLVIDIPE [INO80E],0.135,0.288
MLRLLASGCARGPGPGVGARPAAGLFHPGRRQSRQASDAPRNQPPSPEFVARPVGVCSMMRLPVQTSPEGLDAAFIGVPLDTGTSNRPGARFGPRRIREESVMLGTVNPSTGALPFQSLMVADLGDVNVNLYNLQDSCRRIQEAYEKIVAAGCIPLTLGGDHTITYPILQAMAKKHGPVGLLHVDAHTDTTDKALGEKLYHGAPFRRCVDEGLLDCKRVVQIGIRGSSTTLDPYRYNRSQGFRVVLAEDCWMKSLVPLMGEVRQQMGGKPIYISFDIDALDPAYAPGTGTPEIAGLTPSQALEIIRGCQGLNVMGCDLVEVSPPYDLSGNTALLAANLLFEMLCALPKVTTV [AGMAT],0.243,0.0673
POMGNT1,-0.257,-0.0514
HEATR5A,-0.0946,-0.116
MSSGLWSQEKVTSPYWEERIFYLLLQECSVTDKQTQKLLKVPKGSIGQYIQDRSVGHSRIPSAKGKKNQIGLKILEQPHAVLFVDEKDVVEINEKFTELLLAITNCEERFSLFKNRNRLSKGLQIDVGCPVKVQLRSGEEKFPGVVRFRGPLLAERTVSGIFFGVELLEEGRGQGFTDGVYQGKQLFQCDEDCGVFVALDKLELIEDDDTALESDYAGPGDTMQVELPPLEINSRVSLKVGETIESGTVIFCDVLPGKESLGYFVGVDMDNPIGNWDGRFDGVQLCSFACVESTILLHINDIIPALSESVTQERRPPKLAFMSRGVGDKGSSSHNKPKATGSTSDPGNRNRSELFYTLNGSSVDSQPQSKSKNTWYIDEVAEDPAKSLTEISTDFDRSSPPLQPPPVNSLTTENRFHSLPFSLTKMPNTNGSIGHSPLSLSAQSVMEELNTAPVQESPPLAMPPGNSHGLEVGSLAEVKENPPFYGVIRWIGQPPGLNEVLAGLELEDECAGCTDGTFRGTRYFTCALKKALFVKLKSCRPDSRFASLQPVSNQIERCNSLAFGGYLSEVVEENTPPKMEKEGLEIMIGKKKGIQGHYNSCYLDSTLFCLFAFSSVLDTVLLRPKEKNDVEYYSETQELLRTEIVNPLRIYGYVCATKIMKLRKILEKVEAASGFTSEEKDPEEFLNILFHHILRVEPLLKIRSAGQKVQDCYFYQIFMEKNEKVGVPTIQQLLEWSFINSNLKFAEAPSCLIIQMPRFGKDFKLFKKIFPSLELNITDLLEDTPRQCRICGGLAMYECRECYDDPDISAGKIKQFCKTCNTQVHLHPKRLNHKYNPVSLPKDLPDWDWRHGCIPCQNMELFAVLCIETSHYVAFVKYGKDDSAWLFFDSMADRDGGQNGFNIPQVTPCPEVGEYLKMSLEDLHSLDSRRIQGCARRLLCDAYMCMYQSPTMSLYK,0.0441,-0.178
MDIIETAKLEEHLENQPSDPTNTYARPAEPVEEENKNGNGKPKSLSSGLRKGTKKYPDYIQIAMPTESRNKFPLEWWKTGIAFIYAVFNLVLTTVMITVVHERVPPKELSPPLPDKFFDYIDRVKWAFSVSEINGIILVGLWITQWLFLRYKSIVGRRFCFIIGTLYLYRCITMYVTTLPVPGMHFQCAPKLNGDSQAKVQRILRLISGGGLSITGSHILCGDFLFSGHTVTLTLTYLFIKEYSPRHFWWYHLICWLLSAAGIICILVAHEHYTIDVIIAYYITTRLFWWYHSMANEKNLKVSSQTNFLSRAWWFPIFYFFEKNVQGSIPCCFSWPLSWPPGCFKSSCKKYSRVQKIGEDNEKST [SGMS2],-0.197,-0.0915
MVAMAEAEAGVAVEVRGLPPAVPDELLTLYFENRRRSGGGPVLSWQRLGCGGVLTFREPADAERVLAQADHELHGAQLSLRPAPPRAPARLLLQGLPPGTTPQRLEQHVQALLRASGLPVQPCCALASPRPDRALVQLPKPLSEADVRVLEEQAQNLGLEGTLVSLARVPQARAVRVVGDGASVDLLLLELYLENERRSGGGPLEDLQRLPGPLGTVASFQQWQVAERVLQQEHRLQGSELSLVPHYDILEPEELAENTSGGDHPSTQGPRATKHALLRTGGLVTALQGAGTVTMGSGEEPGQSGASLRTGPMVQGRGIMTTGSGQEPGQSGTSLRTGPMGSLGQAEQVSSMPMGSLEHEGLVSLRPVGLQEQEGPMSLGPVGSAGPVETSKGLLGQEGLVEIAMDSPEQEGLVGPMEITMGSLEKAGPVSPGCVKLAGQEGLVEMVLLMEPGAMRFLQLYHEDLLAGLGDVALLPLEGPDMTGFRLCGAQASCQAAEEFLRSLLGSISCHVLCLEHPGSARFLLGPEGQHLLQGLEAQFQCVFGTERLATATLDTGLEEVDPTEALPVLPGNAHTLWTPDSTGGDQEDVSLEEVRELLATLEGLDLDGEDWLPRELEEEGPQEQPEEEVTPGHEEEEPVAPSTVAPRWLEEEAALQLALHRSLEPQGQVAEQEEAAALRQALTLSLLEQPPLEAEEPPDGGTDGKAQLVVHSAFEQDVEELDRALRAALEVHVQEETVGPWRRTLPAELRARLERCHGVSVALRGDCTILRGFGAHPARAARHLVALLAGPWDQSLAFPLAASGPTLAGQTLKGPWNNLERLAENTGEFQEVVRAFYDTLDAARSSIRVVRVERVSHPLLQQQYELYRERLLQRCERRPVEQVLYHGTTAPAVPDICAHGFNRSFCGRNATVYGKGVYFARRASLSVQDRYSPPNADGHKAVFVARVLTGDYGQGRRGLRAPPLRGPGHVLLRYDSAVDCICQPSIFVIFHDTQALPTHLITCEHVPRASPDDPSGLPGRSPDT [PARP10],0.14,0.0134
MILQRLFRFSSVIRSAVSVHLRRNIGVTAVAFNKELDPIQKLFVDKIREYKSKRQTSGGPVDASSEYQQELERELFKLKQMFGNADMNTFPTFKFEDPKFEVIEKPQA [ATP5J],-0.962,0.55
MGSKERFHWQSHNVKQSGVDDMVLLPQITEDAIAANLRKRFMDDYIFTYIGSVLISVNPFKQMPYFTDREIDLYQGAAQYENPPHIYALTDNMYRNMLIDCENQCVIISGESGAGKTVAAKYIMGYISKVSGGGEKVQHVKDIILQSNPLLEAFGNAKTVRNNNSSRFGKYFEIQFSRGGEPDGGKISNFLLEKSRVVMQNENERNFHIYYQLLEGASQEQRQNLGLMTPDYYYYLNQSDTYQVDGTDDRSDFGETLSAMQVIGIPPSIQQLVLQLVAGILHLGNISFCEDGNYARVESVDLLAFPAYLLGIDSGRLQEKLTSRKMDSRWGGRSESINVTLNVEQAAYTRDALAKGLYARLFDFLVEAINRAMQKPQEEYSIGVLDIYGFEIFQKNGFEQFCINFVNEKLQQIFIELTLKAEQEEYVQEGIRWTPIQYFNNKVVCDLIENKLSPPGIMSVLDDVCATMHATGGGADQTLLQKLQAAVGTHEHFNSWSAGFVIHHYAGKVSYDVSGFCERNRDVLFSDLIELMQTSEQAFLRMLFPEKLDGDKKGRPSTAGSKIKKQANDLVATLMRCTPHYIRCIKPNETKRPRDWEENRVKHQVEYLGLKENIRVRRAGFAYRRQFAKFLQRYAILTPETWPRWRGDERQGVQHLLRAVNMEPDQYQMGSTKVFVKNPESLFLLEEVRERKFDGFARTIQKAWRRHVAVRKYEEMREEASNILLNKKERRRNSINRNFVGDYLGLEERPELRQFLGKRERVDFADSVTKYDRRFKPIKRDLILTPKCVYVIGREKVKKGPEKGQVCEVLKKKVDIQALRGVSLSTRQDDFFILQEDAADSFLESVFKTEFVSLLCKRFEEATRRPLPLTFSDTLQFRVKKEGWGGGGTRSVTFSRGFGDLAVLKVGGRTLTVSVGDGLPKSSKPTRKGMAKGKPRRSSQAPTRAAPAPPRGMDRNGVPPSARGGPLPLEIMSGGGTHRPPRGPPSTSLGASRRPRARPPSEHNTEFLNVPDQGMAGMQRKRSVGQRPVPGVGRPKPQPRTHGPRCRALYQYVGQDVDELSFNVNEVIEILMEDPSGWWKGRLHGQEGLFPGNYVEKI [MYO1F],-0.1,-0.173
MGLKAAQKTLFPLRSIDDVVRLFAAELGREEPDLVLLSLVLGFVEHFLAVNRVIPTNVPELTFQPSPAPDPPGGLTYFPVADLSIIAALYARFTAQIRGAVDLSLYPREGGVSSRELVKKVSDVIWNSLSRSYFKDRAHIQSLFSFITGTKLDSSGVAFAVVGACQALGLRDVHLALSEDHAWVVFGPNGEQTAEVTWHGKGNEDRRGQTVNAGVAERSWLYLKGSYMRCDRKMEVAFMVCAINPSIDLHTDSLELLQLQQKLLWLLYDLGHLERYPMALGNLADLEELEPTPGRPDPLTLYHKGIASAKTYYRDEHIYPYMYLAGYHCRNRNVREALQAWADTATVIQDYNYCREDEEIYKEFFEVANDVIPNLLKEAASLLEAGEERPGEQSQGTQSQGSALQDPECFAHLLRFYDGICKWEEGSPTPVLHVGWATFLVQSLGRFEGQVRQKVRIVSREAEAAEAEEPWGEEAREGRRRGPRRESKPEEPPPPKKPALDKGLGTGQGAVSGPPRKPPGTVAGTARGPEGGSTAQVPAPTASPPPEGPVLTFQSEKMKGMKELLVATKINSSAIKLQLTAQSQVQMKKQKVSTPSDYTLSFLKRQRKGL [MEN1],-0.472,0.197
